Assay results as given in patent publication US7670782B2, “Screening of compounds for CAT1 transporter activity” (XenoPort, Inc., priority 2005, dated 2010).

Test system: NCCC[C@H](N)C(=O)O
Assay: cells, lysate or membranes
Conditions: other: direct uptake into LLCPK-TREx-hCAT1 cells

Sequence of hCAT1 (Homo sapiens) (chain, as listed by the source): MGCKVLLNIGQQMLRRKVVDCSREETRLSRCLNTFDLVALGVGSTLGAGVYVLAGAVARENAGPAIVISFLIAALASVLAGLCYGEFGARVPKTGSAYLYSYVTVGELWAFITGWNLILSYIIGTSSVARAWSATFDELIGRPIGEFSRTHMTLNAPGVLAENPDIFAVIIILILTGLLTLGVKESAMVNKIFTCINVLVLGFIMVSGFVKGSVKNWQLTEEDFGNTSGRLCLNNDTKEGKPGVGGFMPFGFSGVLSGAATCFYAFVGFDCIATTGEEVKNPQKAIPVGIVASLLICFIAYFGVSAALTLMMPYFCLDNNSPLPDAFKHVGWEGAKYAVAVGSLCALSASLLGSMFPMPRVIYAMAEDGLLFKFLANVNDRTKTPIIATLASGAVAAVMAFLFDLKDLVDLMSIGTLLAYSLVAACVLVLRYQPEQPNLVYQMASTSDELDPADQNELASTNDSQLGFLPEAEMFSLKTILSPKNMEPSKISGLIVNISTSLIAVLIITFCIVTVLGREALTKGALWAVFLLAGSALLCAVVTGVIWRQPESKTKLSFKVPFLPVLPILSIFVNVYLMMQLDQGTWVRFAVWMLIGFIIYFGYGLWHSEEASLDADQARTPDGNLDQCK

## hCAT1 (Homo sapiens)
  Km: 200 µM
5 minutes at room temperature, specific uptake (+TET minus no TET)
  Km: 184 µM
